Reference: PMC5790919, “UDP-Glucuronic Acid Transport Is Required for Virulence of Cryptococcus neoformans” (mBio, 2018)

Test system: O=C(O)[C@H]1O[C@H](OP(=O)(O)OP(=O)(O)OC[C@H]2O[C@@H](n3ccc(=O)[nH]c3=O)[C@H](O)[C@@H]2O)[C@H](O)[C@@H](O)[C@@H]1O
Test: cells, lysate or membranes
Settings: proteoliposomes preloaded with 10 mM UMP (antiport), 2 min uptake; transport; kcat printed as turnover rate

## Uut1 (Cryptococcus neoformans H99)
  Km: 0.6 ± 0.1 µM
  kcat: 0.08 s⁻¹
